Experiments:
[1] = target: T1, CadCc (Escherichia coli K-12 MG1655 (cloning template per Methods; text discusses Salmonella CadC)) (UniProt P23890); test: BLI; details: EMSA: 20 mM Tris-HCl pH 8.0, 100 mM NaCl, 1 mM MgCl2, 1 mM ZnCl2, 4% glycerol, RT 10 min (competition 4 C, 30 min + 30 min); BLI: PBS + 1 mM ZnCl2 (CadCc …)
T1 sequence: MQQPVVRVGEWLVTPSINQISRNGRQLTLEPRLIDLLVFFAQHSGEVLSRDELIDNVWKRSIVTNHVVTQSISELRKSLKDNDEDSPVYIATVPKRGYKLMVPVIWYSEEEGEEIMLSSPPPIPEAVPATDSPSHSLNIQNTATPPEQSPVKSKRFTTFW

H-NS = target: T2, H-NS (Escherichia coli K-12 MG1655 (cloning …, UniProt P0ACF8 1-137)); test: BLI; PBS without ZnCl2; printed unit umoL; kdis 0.0145/s; EMSA: 20 mM Tris-HCl pH 8.0, 100 mM NaCl, 1 mM MgCl2, 1 mM ZnCl2, 4% glycerol, RT 10 min (competition 4 C, 30 min + 30 min); BLI: PBS + 1 mM ZnCl2 (CadCc, 50 ug/mL) or PBS (H-NS), 25 C; footprinting: 30 C, 30 min; details: protein: recombinant; tags: N-terminal 6xHis (pGL01); chain copies: 2; Methods: 'C-terminus'); blunt
T2 sequence: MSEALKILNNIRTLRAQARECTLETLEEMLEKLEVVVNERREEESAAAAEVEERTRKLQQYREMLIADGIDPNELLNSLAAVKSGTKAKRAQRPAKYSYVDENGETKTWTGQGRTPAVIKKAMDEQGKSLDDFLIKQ

Question: Which Kd [1] does the source give for “TCATCATATATAATGATAT (double strand) [19 nt overlap DNA of ydiV promoter]” here?
Answer: 203 nM

B1: 19 nt overlap DNA of ydiV promoter (dsDNA)
DNA 1: TCATCATATATAATGATAT
DNA 2: ATATCATTATATATGATGA
Question: For B1, which Kd (H-NS) is on record?
Answer: 533 ± 12.7 nM

Source: paper PMC9728131, “Host acid signal controls Salmonella flagella biogenesis through CadC-YdiV axis”
